Results taken from PMC3326528.
Where a chain is given by its changes, count along the chain named. In names and notes the source's numbering stands.

Substrate: C[S+](CC[C@H](N)C(=O)[O-])C[C@H]1O[C@@H](n2cnc3c(N)ncnc32)[C@H](O)[C@@H]1O
Assay: Discontinuous HPLC assay of 5′-FDA formation with SAM varied at 200 mM fluoride
Assay type: biochemical
Details: pH 7.8; 25.0 °C

B1: T80A (Streptantibioticus cattleyicolor; T80A) (protein)
chain: AANSTRRPIIAFMSDLGTTDDSVAQCKGLMYSICPDVTVVDVCHSMTPWDVEEGARYIVDLPRFFPEGTVFATTTYPAAGTTTRSVAVRIKQAAKGGARGQWAGSGAGFERAEGSYIYIAPNNGLLTTVLEEHGYLEAYEVTSPKVIPEQPEPTFYSREMVAIPSAHLAAGFPLSEVGRPLEDHEIVRFNRPAVEQDGEALVGVVSAIDHPFGNVWTNIHRTDLEKAGIGYGARLRLTLDGVLPFEAPLTPTFADAGEIGNIAIYLNSRGYLSIARNAASLAYPYHLKEGMSARVEAR
Km: 3.0 ± 0.4 µM | kcat: 8.33e-05 ± 3.33e-06 s⁻¹

B2: S158G (Streptantibioticus cattleyicolor; S158G) (protein)
chain: B1 chain with A79T, S157G
Km: 0.8 ± 0.5 µM | kcat: 1.17e-05 ± 5e-07 s⁻¹

B3: S158A (Streptantibioticus cattleyicolor; S158A) (protein)
chain: B1 chain with A79T, S157A
Km: 9.2 ± 1.2 µM | kcat: 0.00015 ± 1e-05 s⁻¹

B4: T80S (Streptantibioticus cattleyicolor; T80S) (protein)
chain: B1 chain with A79S
Km: 4.7 ± 0.4 µM | kcat: 0.001 ± 3.33e-05 s⁻¹
